Laboratory results from the supplement of paper PMC5998384.

What was measured:
HeLa Kyoto [1] = experiment: solubility in G1/S (NP-40 vs SDS abundance) (log2 ratio); higher = more soluble; settings: cell cycle stage: G1/S
HeLa Kyoto [2] = experiment: melting temperature (median over replicates), in situ; higher = more thermally stable
HeLa Kyoto [3] = experiment: solubility change mitosis vs G1/S (difference of NP-40 vs SDS log2 ratios) (log2 ratio difference); higher = more soluble in mitosis
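Wherever melting temperature (median over replicates), in situ is given: HeLa Kyoto cells synchronized by double thymidine or nocodazole block, proteins quantified by TMT10plex mass spectrometry, three independent biological replicates.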
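Wherever solubility change mitosis vs G1/S (difference of NP-40 vs SDS log2 ratios) is given: synchronized HeLa Kyoto cells (double thymidine block for G1/S, nocodazole release for mitosis), protein amounts in NP-40 versus SDS lysates quantified by mass spectrometry, three biological replicates.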
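Wherever solubility in G1/S (NP-40 vs SDS abundance) is given: HeLa Kyoto cells arrested at G1/S by double thymidine block, proteins quantified by TMT10plex mass spectrometry in mild NP-40 versus SDS extracts, three biological replicates.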

Substance	solubility in G1/S (log2) (HeLa Kyoto [1])	melting temperature (HeLa Kyoto [2]; cell cycle stage: mitosis) [°C]	solubility change mitosis (log2) (HeLa Kyoto [3])	melting temperature (HeLa Kyoto [2]; cell cycle stage: G1/S) [°C]
MMSIKAFTLVSAVERELLMGDKERVNIECVECCGRDLYVGTNDCFVYHFLLEERPVPAGPATFTATKQLQRHLGFKKPVNELRAASALNRLLVLCDNSISLVNMLNLEPVPSGARIKGAATFALNENPVSGDPFCVEVCIISVKRRTIQMFLVYEDRVQIVKEVSTAEQPLAVAVDGHFLCLALTTQYIIHNYSTGVSQDLFPYCSEERPPIVKRIGRQEFLLAGPGGLGMFATVAGISQRAPVHWSENVIGAAVSFPYVIALDDEFITVHSMLDQQQKQTLPFKEGHILQDFEGRVIVATSKGVYILVPLPLEKQIQDLLASRRVEEALVLAKGARRNIPKEKFQVMYRRILQQAGFIQFAQLQFLEAKELFRSGQLDVRELISLYPFLLPTSSSFTRSHPPLHEYADLNQLTQGDQEKMAKCKRFLMSYLNEVRSTEVANGYKEDIDTALLKLYAEADHDSLLDLLVTENFCLLTDSAAWLEKHKKYFALGLLYHYNNQDAAAVQLWVNIVNGDVQDSTRSDLYEYIVDFLTYCLDEELVWAYADWVLQKSEEVGVQVFTKRPLDEQQKNSFNPDDIINCLKKYPKALVKYLEHLVIDKRLQKEEYHTHLAVLYLEEVLLQRASASGKGAEATETQAKLRRLLQKSDLYRVHFLLERLQGAGLPMESAILHGKLGEHEKALHILVHELQDFAAAEDYCLWCSEGRDPPHRQQLFHTLLAIYLHAGPTAHELAVAAVDLLNRHATEFDAAQVLQMLPDTWSVQLLCPFLMGAMRDSIHARRTMQVALGLARSENLIYTYDKMKLKGSSIQLSDKKLCQICQNPFCEPVFVRYPNGGLVHTHCAASRHTNPSSSSPGTRT [TGFBRAP1]	-0.0452	51.1	-0.0966	–
MEQPWPPPGPWSLPRAEGEAEEESDFDVFPSSPRCPQLPGGGAQMYSHGIELACQKQKEFVKSSVACKWNLAEAQQKLGSLALHNSESLDQEHAKAQTAVSELRQREEEWRQKEEALVQREKMCLWSTDAISKDVFNKSFINQDKRKDTEDEDKSESFMQKYEQKIRHFGMLSRWDDSQRFLSDHPYLVCEETAKYLILWCFHLEAEKKGALMEQIAHQAVVMQFIMEMAKNCNVDPRGCFRLFFQKAKAEEEGYFEAFKNELEAFKSRVRLYSQSQSFQPMTVQNHVPHSGVGSIGLLESLPQNPDYLQYSISTALCSLNSVVHKEDDEPKMMDTV [CDC37L1]	0.655	50.9	-0.0113	46.3
MSDKPDMAEIEKFDKSKLKKTETQEKNPLPSKETIEQEKQAGES [TMSB4X]	-0.978	50.4	0.302	52.9
MVMYARKQQRLSDGCHDRRGDSQPYQALKYSSKSHPSSGDHRHEKMRDAGDPSPPNKMLRRSDSPENKYSDSTGHSKAKNVHTHRVRERDGGTSYSPQENSHNHSALHSSNSHSSNPSNNPSKTSDAPYDSADDWSEHISSSGKKYYYNCRTEVSQWEKPKEWLEREQRQKEANKMAVNSFPKDRDYRREVMQATATSGFASGMEDKHSSDASSLLPQNILSQTSRHNDRDYRLPRAETHSSSTPVQHPIKPVVHPTATPSTVPSSPFTLQSDHQPKKSFDANGASTLSKLPTPTSSVPAQKTERKESTSGDKPVSHSCTTPSTSSASGLNPTSAPPTSASAVPVSPVPQSPIPPLLQDPNLLRQLLPALQATLQLNNSNVDISKINEVLTAAVTQASLQSIIHKFLTAGPSAFNITSLISQAAQLSTQAQPSNQSPMSLTSDASSPRSYVSPRISTPQTNTVPIKPLISTPPVSSQPKVSTPVVKQGPVSQSATQQPVTADKQQGHEPVSPRSLQRSSSQRSPSPGPNHTSNSSNASNATVVPQNSSARSTCSLTPALAAHFSENLIKHVQGWPADHAEKQASRLREEAHNMGTIHMSEICTELKNLRSLVRVCEIQATLREQRILFLRQQIKELEKLKNQNSFMV [WAC]	0.525	49.9	0.139	46.5
CEP250	-0.0371	50.8	0.272	51
MVNPGSSSQPPPVTAGSLSWKRCAGCGGKIADRFLLYAMDSYWHSRCLKCSCCQAQLGDIGTSCYTKSGMILCRNDYIRLFGNSGACSACGQSIPASELVMRAQGNVYHLKCFTCSTCRNRLVPGDRFHYINGSLFCEHDRPTALINGHLNSLQSNPLLPDQKVC [LMO4]	-0.938	–	-0.0181	52.8
MTTSSIRRQMKNIVNNYSEAEIKVREATSNDPWGPSSSLMTEIADLTYNVVAFSEIMSMVWKRLNDHGKNWRHVYKALTLLDYLIKTGSERVAQQCRENIFAIQTLKDFQYIDRDGKDQGINVREKSKQLVALLKDEERLKAERAQALKTKERMAQVATGMGSNQITFGRGSSQPNLSTSHSEQEYGKAGGSPASYHGSPEASLCPQHRTGAPLGQSEELQPLSQRHPFLPHLGLASRPNGDWSQPCLTCDRAARATSPRVSSELEQARPQTSGEEELQLQLALAMSREVAEQEERLRRGDDLRLQMALEESRRDTVKIPKKKEHGSLPQQTTLLDLMDALPSSGPAAQKAEPWGPSASTNQTNPWGGPAAPASTSDPWPSFGTKPAASIDPWGVPTGATVQSVPKNSDPWAASQQPASSAGKRASDAWGAVSTTKPVSVSGSFELFSNLNGTIKDDFSEFDNLRTSKKTAESVTSLPSQNNGTTSPDPFESQPLTVASSKPSSARKTPESFLGPNAALVNLDSLVTRPAPPAQSLNPFLAPGAPATSAPVNPFQVNQPQPLTLNQLRGSPVLGTSTSFGPGPGVESMAVASMTSAAPQPALGATGSSLTPLGPAMMNMVGSVGIPPSAAQATGTTNPFLL [EPN2]	0.656	54.6	-0.0178	54.9
MSQAEFEKAAEEVRHLKTKPSDEEMLFIYGHYKQATVGDINTERPGMLDFTGKAKWDAWNELKGTSKEDAMKAYINKVEELKKKYGI [DBI]	-0.236	53.8	0.148	53.7
MAPERLRSRALSAFKLRGLLLRGEAIKYLTEALQSISELELEDKLEKIINAVEKQPLSSNMIERSVVEAAVQECSQSVDETIEHVFNIIGAFDIPRFVYNSERKKFLPLLMTNHPAPNLFGTPRDKAEMFRERYTILHQRTHRHELFTPPVIGSHPDESGSKFQLKTIETLLGSTTKIGDAIVLGMITQLKEGKFFLEDPTGTVQLDLSKAQFHSGLYTEACFVLAEGWFEDQVFHVNAFGFPPTEPSSTTRAYYGNINFFGGPSNTSVKTSAKLKQLEEENKDAMFVFLSDVWLDQVEVLEKLRIMFAGYSPAPPTCFILCGNFSSAPYGKNQVQALKDSLKTLADIICEYPDIHQSSRFVFVPGPEDPGFGSILPRPPLAESITNEFRQRVPFSVFTTNPCRIQYCTQEITVFREDLVNKMCRNCVRFPSSNLAIPNHFVKTILSQGHLTPLPLYVCPVYWAYDYALRVYPVPDLLVIADKYDPFTTTNTECLCINPGSFPRSGFSFKVFYPSNKTVEDSKLQGF [POLE2]	0.148	49.6	-0.129	50
MAARGRRAEPQGREAPGPAGGGGGGSRWAESGSGTSPESGDEEVSGAGSSPVSGGVNLFANDGSFLELFKRKMEEEQRQRQEEPPPGPQRPDQSAAAAGPGDPKRKGGPGSTLSFVGKRRGGNKLALKTGIVAKKQKTEDEVLTSKGDAWAKYMAEVKKYKAHQCGDDDKTRPLVK [C19ORF43]	0.0485	51.3	0.898	54.8
MKTRQNKDSMSMRSGRKKEAPGPREELRSRGRASPGGVSTSSSDGKAEKSRQTAKKARVEEASTPKVNKQGRSEEISESESEETNAPKKTKTEQELPRPQSPSDLDSLDGRSLNDDGSSDPRDIDQDNRSTSPSIYSPGSVENDSDSSSGLSQGPARPYHPPPLFPPSPQPPDSTPRQPEASFEPHPSVTPTGYHAPMEPPTSRMFQAPPGAPPPHPQLYPGGTGGVLSGPPMGPKGGGAASSVGGPNGGKQHPPPTTPISVSSSGASGAPPTKPPTTPVGGGNLPSAPPPANFPHVTPNLPPPPALRPLNNASASPPGLGAQPLPGHLPSPHAMGQGMGGLPPGPEKGPTLAPSPHSLPPASSSAPAPPMRFPYSSSSSSSAAASSSSSSSSSSASPFPASQALPSYPHSFPPPTSLSVSNQPPKYTQPSLPSQAVWSQGPPPPPPYGRLLANSNAHPGPFPPSTGAQSTAHPPVSTHHHHHQQQQQQQQQQQQQQQQQQQHHGNSGPPPPGAFPHPLEGGSSHHAHPYAMSPSLGSLRPYPPGPAHLPPPHSQVSYSQAGPNGPPVSSSSNSSSSTSQGSYPCSHPSPSQGPQGAPYPFPPVPTVTTSSATLSTVIATVASSPAGYKTASPPGPPPYGKRAPSPGAYKTATPPGYKPGSPPSFRTGTPPGYRGTSPPAGPGTFKPGSPTVGPGPLPPAGPSGLPSLPPPPAAPASGPPLSATQIKQEPAEEYETPESPVPPARSPSPPPKVVDVPSHASQSARFNKHLDRGFNSCARSDLYFVPLEGSKLAKKRADLVEKVRREAEQRAREEKEREREREREKEREREKERELERSVKLAQEGRAPVECPSLGPVPHRPPFEPGSAVATVPPYLGPDTPALRTLSEYARPHVMSPGNRNHPFYVPLGAVDPGLLGYNVPALYSSDPAAREREREARERDLRDRLKPGFEVKPSELEPLHGVPGPGLDPFPRHGGLALQPGPPGLHPFPFHPSLGPLERERLALAAGPALRPDMSYAERLAAERQHAERVAALGNDPLARLQMLNVTPHHHQHSHIHSHLHLHQQDAIHAASASVHPLIDPLASGSHLTRIPYPAGTLPNPLLPHPLHENEVLRHQLFAAPYRDLPASLSAPMSAAHQLQAMHAQSAELQRLALEQQQWLHAHHPLHSVPLPAQEDYYSHLKKESDKPL [ATN1]	0.377	57	0.405	53.9
ATG2B	-0.312	53.4	0.00813	–
MGLFGKTQEKPPKELVNEWSLKIRKEMRVVDRQIRDIQREEEKVKRSVKDAAKKGQKDVCIVLAKEMIRSRKAVSKLYASKAHMNSVLMGMKNQLAVLRVAGSLQKSTEVMKAMQSLVKIPEIQATMRELSKEMMKAGIIEEMLEDTFESMDDQEEMEEEAEMEIDRILFEITAGALGKAPSKVTDALPEPEPPGAMAASEDEEEEEEALEAMQSRLATLRS [CHMP3]	0.866	51	-0.0644	51.4
MASRRKSTTPCMVLASEQDPDLELISDLDEGPPVLTPVENTRAESISSDEEVHESVDSDNQQNKKVEGGYECKYCTFQTPDLNMFTFHVDSEHPNVVLNSSYVCVECNFLTKRYDALSEHNLKYHPGEENFKLTMVKRNNQTIFEQTINDLTFDGSFVKEENAEQAESTEVSSSGISISKTPIMKMMKNKVENKRIAVHHNSVEDVPEEKENEIKPDREEIVENPSSSASESNTSTSIVNRIHPSTASTVVTPAAVLPGLAQVITAVSAQQNSNLIPKVLIPVNSIPTYNAALDNNPLLLNTYNKFPYPTMSEITVLSAQAKYTEEQIKIWFSAQRLKHGVSWTPEEVEEARRKQFNGTVHTVPQTITVIPTHISTGSNGLPSILQTCQIVGQPGLVLTQVAGTNTLPVTAPIALTVAGVPSQNNIQKSQVPAAQPTAETKPATAAVPTSQSVKHETALVNPDSFGIRAKKTKEQLAELKVSYLKNQFPHDSEIIRLMKITGLTKGEIKKWFSDTRYNQRNSKSNQCLHLNNDSSTTIIIDSSDETTESPTVGTAQPKQSWNPFPDFTPQKFKEKTAEQLRVLQASFLNSSVLTDEELNRLRAQTKLTRREIDAWFTEKKKSKALKEEKMEIDESNAGSSKEEAGETSPADESGAPKSGSTGKICKKTPEQLHMLKSAFVRTQWPSPEEYDKLAKESGLARTDIVSWFGDTRYAWKNGNLKWYYYYQSANSSSMNGLSSLRKRGRGRPKGRGRGRPRGRPRGSKRINNWDRGPSLIKFKTGTAILKDYYLKHKFLNEQDLDELVNKSHMGYEQVREWFAERQRRSELGIELFEENEEEDEVIDDQEEDEEETDDSDTWEPPRHVKRKLSKSDD [ZHX1]	0.0738	48.9	-0.162	48.3
